From US20140087995A1 (published 2014)
Numbered stars: 1 amine (or outer) side, 2 acyl side, 3 side chain; on linkers, the order of the positions; unused ones are H or OH. Bridge positions count the residues as written; N and C are the ends. Side chains are listed from the residue outwards. Ends that are not written are not given here. * marks the point of attachment. C20 diacid = O=C(O)CCCCCCCCCCCCCCCCCCC(=O)*; γGlu = O=C(O)[C@H](CCC(=O)[*:2])N[*:1]

T1: human calcitonin receptor (human, UniProt P30988 25-474)
T1 sequence (looked up): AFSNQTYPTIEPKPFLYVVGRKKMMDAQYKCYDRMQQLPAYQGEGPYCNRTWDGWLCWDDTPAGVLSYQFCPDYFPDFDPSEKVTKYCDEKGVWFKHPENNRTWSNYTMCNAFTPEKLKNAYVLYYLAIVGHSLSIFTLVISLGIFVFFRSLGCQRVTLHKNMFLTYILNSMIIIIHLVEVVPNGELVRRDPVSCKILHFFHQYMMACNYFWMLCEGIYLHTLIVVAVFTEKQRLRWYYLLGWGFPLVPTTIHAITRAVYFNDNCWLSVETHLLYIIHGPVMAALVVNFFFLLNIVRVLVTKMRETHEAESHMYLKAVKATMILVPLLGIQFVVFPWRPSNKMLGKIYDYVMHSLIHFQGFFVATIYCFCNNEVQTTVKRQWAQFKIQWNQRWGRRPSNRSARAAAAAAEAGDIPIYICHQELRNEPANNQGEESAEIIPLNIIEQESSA

T2: human amylin 3(a) receptor (human calcitonin receptor plus RAMP-3) (human, UniProt P30988 25-474; O60896 24-148, limits assumed)
T2 sequence (looked up) 1: T1 sequence (looked up)
T2 sequence (looked up) 2: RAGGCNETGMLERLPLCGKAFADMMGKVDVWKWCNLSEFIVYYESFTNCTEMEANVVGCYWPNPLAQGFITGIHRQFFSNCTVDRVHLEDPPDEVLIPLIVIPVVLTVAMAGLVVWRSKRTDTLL

B1: N^α1-[(4S)-4-carboxy-4-(19-carboxynonadecanoylamino)butanoyl]-[Glu14,Arg17,Pro21,Pro27,Pro37]-h-amylin (peptide)
peptide: {C20 diacid-γGlu}-KCNTATCATQRLAEFLRHSSPNFGAIPSSTNVGSNTP-NH2
modifications: disulfide 2-7
SMILES: CC[C@H](C)[C@H](NC(=O)[C@H](C)NC(=O)CNC(=O)[C@H](Cc1ccccc1)NC(=O)[C@H](CC(N)=O)NC(=O)[C@@H]1CCCN1C(=O)[C@H](CO)NC(=O)[C@H](CO)NC(=O)[C@H](Cc1c[nH]cn1)NC(=O)[C@H](CCCNC(=N)N)NC(=O)[C@H](CC(C)C)NC(=O)[C@H](Cc1ccccc1)NC(=O)[C@H](CCC(=O)O)NC(=O)[C@H](C)NC(=O)[C@H](CC(C)C)NC(=O)[C@H](CCCNC(=N)N)NC(=O)[C@H](CCC(N)=O)NC(=O)[C@@H](NC(=O)[C@H](C)NC(=O)[C@@H]1CSSC[C@H](NC(=O)[C@H](CCCCN)NC(=O)CC[C@H](NC(=O)CCCCCCCCCCCCCCCCCCC(=O)O)C(=O)O)C(=O)N[C@@H](CC(N)=O)C(=O)N[C@@H]([C@@H](C)O)C(=O)N[C@@H](C)C(=O)N[C@@H]([C@@H](C)O)C(=O)N1)[C@@H](C)O)C(=O)N1CCC[C@H]1C(=O)N[C@@H](CO)C(=O)N[C@@H](CO)C(=O)N[C@H](C(=O)N[C@@H](CC(N)=O)C(=O)N[C@H](C(=O)NCC(=O)N[C@@H](CO)C(=O)N[C@@H](CC(N)=O)C(=O)N[C@H](C(=O)N1CCC[C@H]1C(N)=O)[C@@H](C)O)C(C)C)[C@@H](C)O
notes: also called compound 8
B2: N^α1N^α1-[(4S)-4-carboxy-4-(19-carboxynonadecanoylamino)butanoyl]-[Glu14,Arg17,Pro21,Pro27,Glu35]-h-amylin (peptide)
peptide: {C20 diacid-γGlu}-KCNTATCATQRLAEFLRHSSPNFGAIPSSTNVGSETY-NH2
modifications: disulfide 2-7
SMILES: CC[C@H](C)[C@H](NC(=O)[C@H](C)NC(=O)CNC(=O)[C@H](Cc1ccccc1)NC(=O)[C@H](CC(N)=O)NC(=O)[C@@H]1CCCN1C(=O)[C@H](CO)NC(=O)[C@H](CO)NC(=O)[C@H](Cc1c[nH]cn1)NC(=O)[C@H](CCCNC(=N)N)NC(=O)[C@H](CC(C)C)NC(=O)[C@H](Cc1ccccc1)NC(=O)[C@H](CCC(=O)O)NC(=O)[C@H](C)NC(=O)[C@H](CC(C)C)NC(=O)[C@H](CCCNC(=N)N)NC(=O)[C@H](CCC(N)=O)NC(=O)[C@@H](NC(=O)[C@H](C)NC(=O)[C@@H]1CSSC[C@H](NC(=O)[C@H](CCCCN)NC(=O)CC[C@H](NC(=O)CCCCCCCCCCCCCCCCCCC(=O)O)C(=O)O)C(=O)N[C@@H](CC(N)=O)C(=O)N[C@@H]([C@@H](C)O)C(=O)N[C@@H](C)C(=O)N[C@@H]([C@@H](C)O)C(=O)N1)[C@@H](C)O)C(=O)N1CCC[C@H]1C(=O)N[C@@H](CO)C(=O)N[C@@H](CO)C(=O)N[C@H](C(=O)N[C@@H](CC(N)=O)C(=O)N[C@H](C(=O)NCC(=O)N[C@@H](CO)C(=O)N[C@@H](CCC(=O)O)C(=O)N[C@H](C(=O)N[C@@H](Cc1ccc(O)cc1)C(N)=O)[C@@H](C)O)C(C)C)[C@@H](C)O
notes: also called compound 22
B3: N^α1-[(4S)-4-carboxy-4-[[(4S)-4-carboxy-4-(19-carboxynonadecanoylamino)butanoyl]amino]butanoyl]-[Glu14,Arg17,Pro21,Pro27,Pro37]-h-amylin (peptide)
peptide: {C20 diacid-γGlu-γGlu}-KCNTATCATQRLAEFLRHSSPNFGAIPSSTNVGSNTP-NH2
modifications: disulfide 2-7
SMILES: CC[C@H](C)[C@H](NC(=O)[C@H](C)NC(=O)CNC(=O)[C@H](Cc1ccccc1)NC(=O)[C@H](CC(N)=O)NC(=O)[C@@H]1CCCN1C(=O)[C@H](CO)NC(=O)[C@H](CO)NC(=O)[C@H](Cc1c[nH]cn1)NC(=O)[C@H](CCCNC(=N)N)NC(=O)[C@H](CC(C)C)NC(=O)[C@H](Cc1ccccc1)NC(=O)[C@H](CCC(=O)O)NC(=O)[C@H](C)NC(=O)[C@H](CC(C)C)NC(=O)[C@H](CCCNC(=N)N)NC(=O)[C@H](CCC(N)=O)NC(=O)[C@@H](NC(=O)[C@H](C)NC(=O)[C@@H]1CSSC[C@H](NC(=O)[C@H](CCCCN)NC(=O)CC[C@H](NC(=O)CC[C@H](NC(=O)CCCCCCCCCCCCCCCCCCC(=O)O)C(=O)O)C(=O)O)C(=O)N[C@@H](CC(N)=O)C(=O)N[C@@H]([C@@H](C)O)C(=O)N[C@@H](C)C(=O)N[C@@H]([C@@H](C)O)C(=O)N1)[C@@H](C)O)C(=O)N1CCC[C@H]1C(=O)N[C@@H](CO)C(=O)N[C@@H](CO)C(=O)N[C@H](C(=O)N[C@@H](CC(N)=O)C(=O)N[C@H](C(=O)NCC(=O)N[C@@H](CO)C(=O)N[C@@H](CC(N)=O)C(=O)N[C@H](C(=O)N1CCC[C@H]1C(N)=O)[C@@H](C)O)C(C)C)[C@@H](C)O
notes: also called compound 14
B4: N^ε1-[(4S)-4-carboxy-4-(19-carboxynonadecanoylamino)butanoyl]-[Glu14,Arg17,Pro21,Pro27,Arg34,Glu35]-h-amylin (peptide)
peptide: K([γGlu-C20 diacid])CNTATCATQRLAEFLRHSSPNFGAIPSSTNVGRETY-NH2
modifications: disulfide 2-7; N-terminus assumed
SMILES: CC[C@H](C)[C@H](NC(=O)[C@H](C)NC(=O)CNC(=O)[C@H](Cc1ccccc1)NC(=O)[C@H](CC(N)=O)NC(=O)[C@@H]1CCCN1C(=O)[C@H](CO)NC(=O)[C@H](CO)NC(=O)[C@H](Cc1c[nH]cn1)NC(=O)[C@H](CCCNC(=N)N)NC(=O)[C@H](CC(C)C)NC(=O)[C@H](Cc1ccccc1)NC(=O)[C@H](CCC(=O)O)NC(=O)[C@H](C)NC(=O)[C@H](CC(C)C)NC(=O)[C@H](CCCNC(=N)N)NC(=O)[C@H](CCC(N)=O)NC(=O)[C@@H](NC(=O)[C@H](C)NC(=O)[C@@H]1CSSC[C@H](NC(=O)[C@@H](N)CCCCNC(=O)CC[C@H](NC(=O)CCCCCCCCCCCCCCCCCCC(=O)O)C(=O)O)C(=O)N[C@@H](CC(N)=O)C(=O)N[C@@H]([C@@H](C)O)C(=O)N[C@@H](C)C(=O)N[C@@H]([C@@H](C)O)C(=O)N1)[C@@H](C)O)C(=O)N1CCC[C@H]1C(=O)N[C@@H](CO)C(=O)N[C@@H](CO)C(=O)N[C@H](C(=O)N[C@@H](CC(N)=O)C(=O)N[C@H](C(=O)NCC(=O)N[C@@H](CCCNC(=N)N)C(=O)N[C@@H](CCC(=O)O)C(=O)N[C@H](C(=O)N[C@@H](Cc1ccc(O)cc1)C(N)=O)[C@@H](C)O)C(C)C)[C@@H](C)O
B5: N^α1-[(4S)-4-carboxy-4-(19-carboxynonadecanoylamino)butanoyl]-[Glu14,Arg17,Pro21,Pro28,Glu35]-h-amylin (peptide)
peptide: {C20 diacid-γGlu}-KCNTATCATQRLAEFLRHSSPNFGAILPSTNVGSETY-NH2
modifications: disulfide 2-7
notes: also called compound 33

Target: T1, human calcitonin receptor
Experiment: cell-based or functional assay

Going from B1 to B2, the “hCTR funct. EC50” value rises from 0.087 nM to 1.03 nM (12-fold).

Going from B3 to B4, the “hCTR funct. EC50” value rises from 0.238 nM to 2.75 nM (12-fold).

For B5, the “hCTR funct. EC50” value was 0.528 nM.

Target: T2, human amylin 3(a) receptor (human …)
Experiment: cell-based or functional assay

Going from B1 to B2, the “Ratio hCT/hAmylin funct.” value rises from 1.1 to 3.8.

First: B3
Second: B4
The “Ratio hCT/hAmylin funct.” value of the first is lower: 1.6 for the first, 6.5 for the second.

In the case of B5, the “Ratio hCT/hAmylin funct.” value is reported as 2.2.

Going from B1 to B2, the “hAmylin-R funct. EC50” value rises from 0.082 nM to 0.27 nM (3.3-fold).

First: B3
Second: B4
The “hAmylin-R funct. EC50” value of the first is 2.9-fold lower: 0.146 nM for the first, 0.421 nM for the second.

In the case of B5, the “hAmylin-R funct. EC50” value is reported as 0.243 nM.

Target: T2, human amylin 3(a) receptor (human …)
Experiment: SPA competition binding, displacement of 125I-rat amylin from membranes of Amylin 3(a)/CRE-luc BHK cells (Assay V)
Method in brief: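 Cell membranes were prepared by homogenisation in Na-HEPES/EDTA buffer, pH 7.4, and stored at −80° C. They were then coupled to SPA beads at 35 ng/μL final and exposed to compounds in assay buffer containing CaCl2, MgCl₂, OA and Tween20. After 120 min at 25° C, plates were counted and IC₅₀ derived.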

Compared with B1, B2 is 11-fold higher in IC50: 0.072 nM for the first, 0.794 nM for the second. The first is the more potent here.

B3 and B4 are within 1.5-fold of each other in IC50: 0.196 nM for the first, 0.232 nM for the second.

In the case of B5, the IC50 is reported as 0.915 nM.
